Experimental data taken from patent US20130245238A1 (Bristol-Myers Squibb, published 2013).

Experiments:
[1] = molecular target: T1, human PXR-GST (Invitrogen) (human, UniProt O75469 111-434, limits assumed); experiment: SPR, Biacore T100; human PXR-GST captured on anti-GST antibody chip;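 note: binding rate constants and Kd derived from kinetic cycles using the Biacore T100 analysis software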
T1 construct: Captured on an anti-GST antibody chip; the whole natural protein is named; also called GST-PXR; GST-tagged PXR; not shown: GST tag
T1 sequence (looked up): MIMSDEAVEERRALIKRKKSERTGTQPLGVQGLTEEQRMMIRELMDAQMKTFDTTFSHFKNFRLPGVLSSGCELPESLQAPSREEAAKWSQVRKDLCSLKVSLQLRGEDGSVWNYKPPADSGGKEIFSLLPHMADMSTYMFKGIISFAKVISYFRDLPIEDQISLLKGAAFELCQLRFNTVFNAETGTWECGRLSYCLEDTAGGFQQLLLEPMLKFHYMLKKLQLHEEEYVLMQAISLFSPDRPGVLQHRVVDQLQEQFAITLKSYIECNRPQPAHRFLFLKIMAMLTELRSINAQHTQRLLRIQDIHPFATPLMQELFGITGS

[2] = molecular target: T2, biotinylated murine IL-17 (murine, UniProt Q62386 26-158, limits assumed, biotinylated (site not stated)); experiment: competitive Alphascreen; 1 µM binder, biotinylated murine IL-17 against murine IL-17RA-Fc
T2 construct: Used at 2.5 nM in the Alphascreen assay; also called interleukin 17
T2 sequence (looked up): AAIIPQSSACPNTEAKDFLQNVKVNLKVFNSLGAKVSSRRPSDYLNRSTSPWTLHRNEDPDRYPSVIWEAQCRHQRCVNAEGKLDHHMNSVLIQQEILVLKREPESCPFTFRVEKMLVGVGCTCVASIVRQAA

[3] = molecular target: T3, murine DLL4 (murine, UniProt Q9JI71 28-525, limits assumed); experiment: competitive Biacore; 2 µM binder equilibrated with 20 nM murine DLL4, flowed over immobilised Notch1-Fc
T3 construct: Soluble protein used at 20 nM; construct and source are not described; also called delta-like protein 4

[4] = molecular target: HLA allele molecule DRB*0101 (human); experiment: HLA class II competition binding assay: inhibition of the europium-labeled control peptide, time-resolved fluorescence
[5] = molecular target: HLA allele molecule DRB*1501 (human); experiment: as above
[6] = molecular target: T4, Recombinant human integrin αVβ3 (R&D Systems) (human, UniProt P06756 31-992; P05106 27-718); experiment: SPR (Biacore), integrin amine-coupled to a CM7 chip, binding RU at the end of the injection
T4 construct: Amine-coupled on a CM7 chip; also called integrin AlphaV-Beta3

B1: Adnectin-6 (designed binder)
chain: MGVSDVPRDLEVVAATPTSLLISWSRPKGSIKYYRITYGETGGNSPVQEFTVPNSQYTATISGLKPGVDYTITVYAVYGYPYQEPHYYPISINYRTEIDKPSQHHHHHH
- Kd [1]: 1.9 nM
- koff [1]: 0.00126 s⁻¹
- kon [1]: 680000 M⁻¹ s⁻¹

B2: Adnectin-7 (designed binder)
chain: MGVSDVPRDLEVVTATPTSLLISWDGPKYYVKYYRITYGETGGNSPVQEFTVPRTDHTATISGLKPGVDYTITVYAVKGQYGPYYGSRPISINYRTEIDKPSQHHHHHH
- Kd [1]: 0.31 nM
- koff [1]: 8.82e-05 s⁻¹
- kon [1]: 288000 M⁻¹ s⁻¹

B3: WS-LI1 binder having the sequence of SEQ ID NO: 46 (designed binder)
chain: MGVSDVPRDLEVVAATPTSLLISWDAPAVTVRYYRITYGEYSSFFQHQGQYYHYIQEFTVPGSKSTATISGLKPGVDYTITVYAVTQHEHSQDSSKPISINYRTEIDKPSQ
notes: Modified ^10Fn3 domain (CD and FG loops)
- % inhibition of the Alphascreen signal [2]: 94%

B4: Adnectin-3 (designed binder)
chain: MASTSGVSDVPRDLEVVAATPTSLLISWDAPAVPVSKYVIYYWPGALISSMQAFKVPGSKSTATISGLKPGVLYSIVVDALTGDGQGSYVWDPITITYRTEGSGSHHHHHH
- Kd [1]: 2.5 nM
- koff [1]: 0.000378 s⁻¹
- kon [1]: 162000 M⁻¹ s⁻¹

B5: WS-LI1 binder having the sequence of SEQ ID NO: 4 (designed binder)
chain: MGVSDVPRDLEVVAATPTSLLISWDAPAVTVRYYRITYGEHVADHFDHNQEFTVPGSKSTATISGLKPGVDYTITVYAVTYQFQDPEEHYYYHFYDSSSKPISINYRTEIDKPSQ
notes: as for B3
- % competition of the interaction between Notch1 and murine DLL4 [3]: 100%

B6: WS-LI1 binder having the sequence of SEQ ID NO: 5 (designed binder)
chain: MGVSDVPRDLEVVAATPTSLLISWDAPAVTVRYYRITYGEYHEHYHSPGFSQKYHYEQEFTVPGSKSTATISGLKPGVDYTITVYAVTGHKHYHYYYYYHHHSSKPISINYRTEIDKPSQ
notes: as for B3
- % competition of the interaction between Notch1 and murine DLL4 [3]: 75%

B7: WS-LI1 binder having the sequence of SEQ ID NO: 3 (designed binder)
chain: MGVSDVPRDLEVVAATPTSLLISWDAPAVTVRYYRITYGEQHSKYPHQEFTVPGSKSTATISGLKPGVDYTITVYAVTIQPQDPEQDYQYHYYETSSKPISINYRTEIDKPSQ
notes: as for B3
- % competition of the interaction between Notch1 and murine DLL4 [3]: 100%

B8: scaffold region peptide of SEQ ID NO: 53 (peptide)
peptide: MGEVVAATPTSLLIS
notes: Synthetic peptide; also called wildtype scaffold region segment N-terminal to the BC loop
- IC50 [4]: 6 µM
- IC50 [5]: < 0.1 µM

B9: non-binding control ^10Fn3 molecule (SEQ ID NO: 6 with an additional MG at the N-terminus and RGD changed to RGE) (designed binder)
chain: MGVSDVPRDLEVVAATPTSLLISWDAPAVTVRYYRITYGETGGNSPVQEFTVPGSKSTATISGLKPGVDYTITVYAVTGRGESPASSKPISINYRT
- binding result [6]: no binding (tested: 5 µM)

B10: Adnectin-5 (designed binder)
chain: MGVSDVPRDLEVVAATPTSLLISWKYPYETISYYRITYGETGGNSPVQEFTVPYYRSTATISGLKPGVDYTITVYAVEASAPYSDGGSPISINYRTEIDKPSQHHHHHH
- Kd [1]: 5.4 nM
- koff [1]: 0.0027 s⁻¹
- kon [1]: 509000 M⁻¹ s⁻¹

B11: Adnectin-8 (designed binder)
chain: MGVSDVPRDLEVVAATPTSLLISWSQPGRYVKYYRITYGETGGNSPVQEFTVPNDTYTATISGLKPGVDYTITVYAVYGKYGPYYGYDPISINYRTEIDKPSQHHHHHH
- Kd [1]: 4.4 nM
- koff [1]: 0.000182 s⁻¹
- kon [1]: 41700 M⁻¹ s⁻¹

B12: scaffold region peptide of SEQ ID NO: 54 (peptide)
peptide: PHFPTRYYRITYGETGGNS
notes: Synthetic peptide from an engineered ^10Fn3 domain; also called modified scaffold region segment C-terminal to the BC loop
- IC50 [5]: 50 µM

B13: WS-LI1 binder having the sequence of SEQ ID NO: 47 (designed binder)
chain: MGVSDVPRDLEVVAATPTSLLISWDAPAVTVRYYRITYGEFSQFVHSDGEYYQEYQEFTVPGSKSTATISGLKPGVDYTITVYAVTGQYDQDDEPSSKPISINYRTEIDKPSQ
notes: as for B3
- % inhibition of the Alphascreen signal [2]: 81%

B14: Adnectin-1 (designed binder)
chain: MASTSGSTHYYKGTADLEVVAATPTSLLISWPPPYYVEGVTVFRITYGETGGNSPVQEFTVPYWTETATISGLKPGVDYTITVYAEMYPGSPWAGQVMDIQPISINYRTEGSGSHHHHHH
notes: Isolated from an NP1 library; purified by Ni-agarose
- Kd [1]: 11.4 nM
- koff [1]: 0.00119 s⁻¹
- kon [1]: 104000 M⁻¹ s⁻¹

B15: BC loop peptide (SEQ ID NO: 58) (peptide)
peptide: PTSLLISWDAPAVTVRYYRITYG
notes: Synthetic peptide; also called BC loop region cluster
- IC50 [5]: < 1 µM

B16: WS-LI1 binder having the sequence of SEQ ID NO: 45 (designed binder)
chain: MGVSDVPRDLEVVAATPTSLLISWDAPAVTVRYYRITYGEYHAFFASNGKYYFYIQEFTVPGSKSTATISGLKPGVDYTITVYAVTDDTVHHGDSNYHSSKPISINYRTEIDKPSQ
notes: as for B3
- % inhibition of the Alphascreen signal [2]: 83%

B17: Adnectin-4 (designed binder)
chain: MASTSGVSDVPRDLEVVAATPTSLLISWDAPAVTVHSYYITYQELQHHSVPQGFQVPGSKSTATISGLKPGVAYQIAVYAFTGPGLPPSDAPPIVIYYRTEGSGSHHHHHH
- Kd [1]: 7.8 nM
- koff [1]: 0.000168 s⁻¹
- kon [1]: 21500 M⁻¹ s⁻¹

B18: Adnectin-2 (designed binder)
chain: MASTSGVSDVPRDLEVVAATPTSLLISWDAPAVTVNNYRITYQPLLQGSSIQHFDVPGSKSTATISGLKPGVGYQITVYASTYTHSKAYYSLPISIYYRTEGSGSHHHHHH
- Kd [1]: 97.8 nM
- koff [1]: 0.00458 s⁻¹
- kon [1]: ~46800 M⁻¹ s⁻¹
